Our source for the reverse-splicing fitness values is the RNAGym collection of RNA variant scans (doi:10.1093/molbev/msab373).

Sequences and labels used below:
B1: Azoarcus group I ribozyme (parent)
chain: GUGCCUUGCGCCGGGAAACCACGCAAGGGAUGGUGUCAAAUUCGGCGAAACCUAAGCGCCCGCCCGGGCGUAUGGCAACGCCGAGCCAAGCUUCGGCGCCUGCGCCGAUGAAGGUGUAGAGACUAGACGGCACCCACCUAAGGCAAACGCUAUGGUGAAGGCAUAGUCCAGGGAGUGGCGAAAGUCACACAAACCGG

In the data set the parent is B1. Put plainly: reverse-splicing fitness (ratio to wild type); higher = more active; in vitro selection; Mg2+ level not given. The gist of the method:
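An in vitro group I ribozyme library with randomized positions was T7-transcribed and gel-purified. In triplicate, 10 pmol RNA in EPPS pH 7.5 was reacted with 50 pmoles of a 30-nt RNA substrate for 1 h at 37 °C across several added MgCl2 levels (1–48 mM), then stopped with EDTA. Products were reverse transcribed from a substrate-complementary primer, PCR-amplified and sequenced (HiSeq 4000). Fitness is a variant's read proportion after selection over that before, normalised to wild type.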
With A111G A120C A145U C150A C169A, the reverse-splicing fitness is 0.00758. Take A111G A120C A145U C150A C169G: the reverse-splicing fitness amounted to 0.00748. The same measure for A111G A120C A145U C150A C169U: 0.033. In the case of A111G A120G A145U C150A C169G U176C, the reverse-splicing fitness came out at 0.0243. The value for A111G A120G A145U C150A C169G U176A was 0.0201; that for A111G A120G A145U C150A C169G U176G was 0.00424; that for A111G A120G A145U C150G was 0.0319. The value for A111G A120G A145U C150A was 0.0301; that for A111G A120G A145U C150A U176C was 0.0234; that for A111G A120G A145U C150A U176G was 0.00541. The value for A111G A120G A145U C150A U176A was 0.0179; that for A111G A120G A145C C150U C169G U176G was 0.00498; that for A111G A120G A145C C150U C169G U176A was 0.0412. For A111G A120G A145C C150U C169G U176C, the reverse-splicing fitness was 0.036. The same measure for A111G A120G A145G C150A C169A: 0.0278; for A111G A120G A145G C150A C169G: 0.0514; for A111G A120G A145G C150A C169U: 0.0458.

In the case of A111G A120C A145G C150A U176G, the reverse-splicing fitness was determined as 0.0203. The same measure for A111G A120C A145G C150A U176C: 0.0998. The value for A111G A120G A145G U176A was 0.0808; that for A111G A120G A145G U176G was 0.00937. The value for A111G A120G A145G U176C was 0.12. As to A111G A120C A145U C169G U176G, the reverse-splicing fitness was found to be 0.0045.

On to A111G A120C A145U C169G U176C, for which the reverse-splicing fitness worked out at 0.00882. The value for A111G A120C A145U C169G U176A was 0.00894.

As to A111G A120G A145C C150A C169U U176C, the reverse-splicing fitness turned out to be 0.0129. The value for A111G A120G A145C C150A C169U U176G was 0.00508; that for A111G A120G A145C C150A C169U U176A was 0.0233. As for A111G A120C C169U, the reverse-splicing fitness turned out to be 0.271.

A111G A120C C169G: the reverse-splicing fitness turned out to be 0.0129. The same measure for A111G A120C C169A: 0.0146; for A111G A120G A145G C169U: 0.252.

With A111G A120G A145G C169A, the reverse-splicing fitness worked out at 0.188. With A111G A120G A145G C169G, the reverse-splicing fitness amounted to 0.329. The value for A111G A120C A145G C150G U176C was 0.0262; that for A111G A120C A145G C150G U176G was 0.00497; that for A111G A120C A145G C150G U176A was 0.0105. The same measure for A111G A120C A145G C150U C169A U176C: 0.0149; for A111G A120C A145G C150U C169A U176A: 0.016.

In the case of A111G A120C A145G C150U C169A U176G, the reverse-splicing fitness is 0.00456.

For A111G A120G A145C C169G U176A, the reverse-splicing fitness came out at 0.079.

Consider A111G A120G A145C C169G U176C, for which the reverse-splicing fitness was found to be 0.0984.

For the variant A111G A120G A145C C169G U176G, the reverse-splicing fitness amounted to 0.00658. The value for A111G A120G A145G C150A C169A U176G was 0.00569; that for A111G A120G A145G C150A C169A U176C was 0.0283. The value for A111G A120G A145G C150A C169A U176A was 0.0193; that for A111G A120C C150A C169A U176G was 0.00468. The value for A111G A120C C150A C169A U176C was 0.0167; that for A111G A120C C150A C169A U176A was 0.0158. For the variant A111G A120C A145G C150U, the reverse-splicing fitness is 0.582. On to A111G A120C A145G C150G, for which the reverse-splicing fitness amounted to 0.0893.

A111G A120G A145C C150A: the reverse-splicing fitness turned out to be 0.0175. The same measure for A111G A120G A145C C150U: 0.0745; for A111G A120G A145C C150G: 0.036; for A111G A120C C150U C169G U176C: 0.0169. The same measure for A111G A120C C150U C169G U176G: 0.00459. The value for A111G A120C C150U C169G U176A was 0.0207; that for A111G A120C C169U U176C was 0.0857. A111G A120C C169U U176G: the reverse-splicing fitness amounted to 0.00675. The value for A111G A120C C169U U176A was 0.0684; that for A111G A120C C150U C169A U176C was 0.012. For A111G A120C C150U C169A U176G, the reverse-splicing fitness amounted to 0.00384. As to A111G A120C C150U C169A U176A, the reverse-splicing fitness came to 0.0182. With A111G A120G A145C C169A U176C, the reverse-splicing fitness amounted to 0.0567. The value for A111G A120G A145C C169A U176A was 0.0345; that for A111G A120G A145C C169A U176G was 0.00382.

Consider A111G A120C A145G U176C, for which the reverse-splicing fitness stood at 0.44. As for A111G A120C A145G U176A, the reverse-splicing fitness was found to be 0.457. The value for A111G A120C A145G U176G was 0.0972; that for A111G A120C C150U C169U U176G was 0.00603; that for A111G A120C C150U C169U U176C was 0.0445. The same measure for A111G A120C C150U C169U U176A: 0.0417; for A111G A120G A145C C150A C169G U176A: 0.0264; for A111G A120G A145C C150A C169G U176G: 0.00542. Take A111G A120G A145C C150A C169G U176C: the reverse-splicing fitness was 0.0168. The same measure for A111G A120C A145U C169U: 0.262. The value for A111G A120C A145U C169A was 0.0133; that for A111G A120C A145U C169G was 0.0128; that for A111G A120C C150A C169U was 0.0403. In the case of A111G A120C C150A C169A, the reverse-splicing fitness was determined as 0.00922.

Turning to A111G A120C C150A C169G, the reverse-splicing fitness is 0.00862. Turning to A111G A120G A145U C150G C169U U176A, the reverse-splicing fitness came out at 0.0148. For the variant A111G A120G A145U C150G C169U U176C, the reverse-splicing fitness came out at 0.0171.
